Assay results: article PMC5693625
Like-named read-outs stand apart in the source and are kept apart here.

Columns and labels:
Test in all cases: functional binding isotherm
DDX3X [1] = target: T1, DDX3X (Homo sapiens, UniProt O00571 1-662)
DDX3X [2] = target: T1, DDX3X; remark: listed apart in the source
DDX3X [3] = target: T1, DDX3X; remark: listed apart in the source

T1 sequence (O00571 whole entry): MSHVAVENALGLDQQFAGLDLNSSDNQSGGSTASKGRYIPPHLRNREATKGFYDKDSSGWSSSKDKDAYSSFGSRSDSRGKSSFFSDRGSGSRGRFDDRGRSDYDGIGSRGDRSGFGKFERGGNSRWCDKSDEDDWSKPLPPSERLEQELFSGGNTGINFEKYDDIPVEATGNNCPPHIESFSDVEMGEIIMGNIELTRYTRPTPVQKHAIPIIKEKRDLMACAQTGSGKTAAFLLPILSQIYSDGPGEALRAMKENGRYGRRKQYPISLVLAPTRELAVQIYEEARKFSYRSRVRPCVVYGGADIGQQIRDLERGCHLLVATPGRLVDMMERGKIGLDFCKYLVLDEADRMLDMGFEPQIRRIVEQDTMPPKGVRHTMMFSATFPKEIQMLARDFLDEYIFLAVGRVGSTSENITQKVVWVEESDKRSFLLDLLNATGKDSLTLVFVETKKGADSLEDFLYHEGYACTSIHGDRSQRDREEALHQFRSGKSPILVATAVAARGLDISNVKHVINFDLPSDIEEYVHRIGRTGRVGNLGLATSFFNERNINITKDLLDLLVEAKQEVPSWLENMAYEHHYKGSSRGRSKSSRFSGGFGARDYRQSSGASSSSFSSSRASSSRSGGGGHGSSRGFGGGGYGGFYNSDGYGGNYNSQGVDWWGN

B1: 13 bp RNA, 25 nt 5' tail (R13-5'a/R38-5'a) (dsRNA)
RNA 1: CGAAAUGCCACGA
RNA 2: AAAACAAAACAAAACAAAACAAAAUUCGUGGCAUUUCG
apparent K (half saturation) (DDX3X [1]): 139 ± 21 nM

B2: 16 bp RNA, 15 nt 3' tail (dsRNA)
RNA 1: CCGUCUUUACGGUGCU
RNA 2: AGCACCGUAAAGACGGUAAAACAAAACAAAA
apparent K (half saturation) (DDX3X [2]): 298 ± 4 nM

B3: 19 bp RNA, 25 nt 5' tail (R19-5'c/R44-5'c) (dsRNA)
RNA 1: CAGAGGAGCAGAGGGAGCA
RNA 2: AAACUACGACUACAGUAACUACGACUGCUCCCUCUGCUCCUCUG
apparent K (half saturation) (DDX3X [3]): 166 ± 18 nM

B4: 16 bp RNA, 25 nt 3' tail (R16-3'c/R41-3'c) (dsRNA)
RNA 1: CCGUCUUUACGGUGCU
RNA 2: AGCACCGUAAAGACGGUAAAACAAAACAAAACAAAACAAAA
apparent K (half saturation) (DDX3X [2]): 118 ± 5 nM

B5: 16 bp RNA, 25 nt 5' tail (R16-5'a/R41-5'a) (dsRNA)
RNA 1: AGCACCGUAAAGACGC
RNA 2: AAAACAAAACAAAACAAAACAAAAUGCGUCUUUACGGUGCU
apparent K (half saturation) (DDX3X [3]): 119 ± 35 nM | apparent K (half saturation) (DDX3X [2]): 127 ± 20 nM
